Laboratory results: patent US20080124811A1 (AbbVie / Abbott, published 2008)

Key:
[1] = molecular target: T1, human brain natriuretic peptide, cyclic BNP (1-32c) (human, cyclic: ring closed by a disulfide bond between the two cysteine residues; biotinylated or acridinium-labelled in some assays); experiment: BIAcore SPR, antibody captured on goat anti-mouse Fc, BNP in solution, 25 C
T1 construct: also called hBNP; hBNP 1-32

[2] = molecular target: T1, human brain natriuretic peptide, cyclic …; experiment: … sandwich CMIA; capture 3-631-436 on microparticles, detection 106.3AM1-acridinium; second particle type
[3] = molecular target: T1, human brain natriuretic peptide, cyclic …; experiment: … sandwich CMIA; capture 3-631-436 on microparticles, detection 106.3AM1-acridinium
[4] = molecular target: T1, human brain natriuretic peptide, cyclic …; experiment: KinExA, solution phase
[5] = molecular target: T1, human brain natriuretic peptide, cyclic …; experiment: … sandwich CMIA; capture 3631436 ms on microparticles, detection 106.3AM2-acridinium
[6] = molecular target: T1, human brain natriuretic peptide, cyclic …; experiment: Biacore SPR, antibody captured on goat anti-mouse Fc, BNP injected, 1:1 Langmuir fit
[7] = molecular target: T1, human brain natriuretic peptide, cyclic …; experiment: off-rate assay on yeast-displayed scFv by flow cytometry: biotinylated cyclic BNP (1-32c), chase with unlabelled BNP 1-32c, SA:PE, first order decay fit
[8] = molecular target: T1, human brain natriuretic peptide, cyclic …; experiment: off-rate assay on yeast-displayed scFv; improvement of koff over 106.3 wt
[9] = molecular target: T1, human brain natriuretic peptide, cyclic …; experiment: yeast display off-rate assay, flow cytometry; t1/2 = ln 2/koff
[10] = molecular target: T1, human brain natriuretic peptide, cyclic …; experiment: off-rate assay on yeast-displayed scFv by flow cytometry: biotinylated cyclic BNP (1-32c), chase with unlabelled BNP 1-32c, SA:PE; m2 of the first order decay fit (error 3.6694e-06, R 0.9993), time axis in sec
[11] = molecular target: T1, human brain natriuretic peptide, cyclic …; experiment: yeast display off-rate assay, flow cytometry, biotinylated cyclic BNP chased with unlabelled BNP, first order decay fit
[12] = molecular target: T1, human brain natriuretic peptide, cyclic …; experiment: off-rate assay on yeast-displayed scFv by flow cytometry: biotinylated cyclic BNP (1-32c), chase with unlabelled BNP 1-32c, SA:PE; m2 of the first order decay fit (error 0.00087362, R 0.98912), time axis in sec
[13] = molecular target: T1, human brain natriuretic peptide, cyclic …; experiment: off-rate assay on yeast-displayed scFv by flow cytometry: biotinylated cyclic BNP (1-32c), chase with unlabelled BNP 1-32c, SA:PE, first order decay fit; remark: listed apart in the source
[14] = molecular target: T1, human brain natriuretic peptide, cyclic …; experiment: scFv on yeast; method not described; printed unit µM read as pM (26 pM is said to be 10-fold lower)

B1: monoclonal antibody 3-631-436 (wild-type mouse mAb from hybridoma cell line 3-631-436, A.T.C.C. PTA-6476) (antibody, V domains shown)
VH: QVQLQQPGAELVRPGASVKLSCKASGYTFTSYWMNWVKQRPEQGLEWIGRIDPYDSETHYNQKFKDKAILTVDKSSSTAFVQLTSLTSEDSAVYYCVSDGYWGAGTTVTVSS
VL: DVVMTQTPLTLSVTTGQPASISCKSSQSLLDSDGKTYLNWLFQRPGESPKLLIYVVSKLESGVPDRFTGSGSGTDFTLKISRVEAEDLGVYYCLQATHFPWTFGGGTKLEIK
modifications: In the sandwich assays the antibody was coupled to particles, biotinylated or acridinium-labelled; the letters do not carry this.
notes: the whole entry is named for each chain and must be cut at the linker; Coated on particles, biotinylated or acridinium-conjugated in the sandwich assays
Q: What does the source list for B1?
A: Kd [1]: 0.38 nM; koff [1]: 0.0025 s⁻¹; kon [1]: 6.7e+06 M⁻¹ s⁻¹; Ratio B/A (RLU at 30 pg/mL over 0 pg/mL) [2]: 2.4; Ratio C/A (RLU at 300 pg/mL over 0 pg/mL) [2]: 23.9; Ratio D/A (RLU at 1000 pg/mL over 0 pg/mL) [2]: 145; Ratio E/A (RLU at 2000 pg/mL over 0 pg/mL) [2]: 409; Ratio B/A (RLU at 30 pg/mL over 0 pg/mL) [3]: 1.9; Ratio C/A (RLU at 300 pg/mL over 0 pg/mL) [3]: 27.8; Ratio D/A (RLU at 1000 pg/mL over 0 pg/mL) [3]: 196; Ratio E/A (RLU at 2000 pg/mL over 0 pg/mL) [3]: 471; Kd [4]: 0.286 nM; Ratio B/A (RLU at 30 pg/mL over 0 pg/mL) [5]: 2.7; Ratio C/A (RLU at 300 pg/mL over 0 pg/mL) [5]: 14.3; Ratio D/A (RLU at 1000 pg/mL over 0 pg/mL) [5]: 32.4; Ratio E/A (RLU at 2000 pg/mL over 0 pg/mL) [5]: 198; Ratio F/A (RLU at 5000 pg/mL over 0 pg/mL) [5]: 595; Kd [6]: 0.375 nM

B2: H2 288 (scFv)
scFv (VH-linker-VL with V5 and 6His tags), displayed on yeast: QLVQSGPELRKPGETVKISCKGSGYTFTHYGINWVKQTPRKDLKWMGWINTHTGEAYYADDFKGRFAFSLETSANTAYLQINNLNNGDMGTYFCTRSHRFGLDYWGQGTSVTVSSGPAKELTPLKEAKVSDNVLTQSPPSLAVSLGQRATISCKASQSVDYNGDSYLNWYQQKPGQPPKFLIYAASNLESGIPARFSGSGSGTDFNLNIHPVEEEDAATYYCQQSNEDPFTFGSGTKLEIKRAAALESRGPFEGKPIPNPLLGLDSTRTGHHHHHH
notes: member of group m4
Q: How did the koff [7] turn out when B2 was run?
A: Its koff is 3.7e-05 s⁻¹.

Q: What about the “Fold Improvement” value [8] of the same binder?
A: The value was 2.3 fold.

B3: 106.3 single-chain variable fragment (scFv), unmutated, on yeast (scFv)
chain: QIQLVQSGPELRKPGETVKISCKGSGYTFTHYGINWVKQTPRKDLKWMGWINTHTGEPIYADDFKGRFAFSLETSANTAYLQINNLNNGDMGTYFCTRSHRFGLDYWGQGTSVTVSSGPAKELTPLKEAKVSDNVLTQSPPSLAVSLGQRATISCKASQSVDYNGDSYLNWYQQKPGQPPKFLIYAASNLESGIPARFSGSGSGTDFNLNIHPVEEEDAATYYCQQSNEDPFTFGSGTKLEIK
Q: Which results are given for B3?
A: half-life (t1/2) [9]: 2.28 h; koff [10]: 8.44e-05 s⁻¹; koff [7]: 8.4e-05 s⁻¹

B4: 3-631-436 scFv, unmutated, on yeast (scFv)
scFv: QVQLQQPGAELVRPGASVKLSCKASGYTFTSYWMNWVKQRPEQGLEWIGRIDPYDSETHYNQKFKDKAILTVDKSSSTAFVQLTSLTSEDSAVYYCVSDGYWGAGTTVTVSSGPAKELTPLKEAKVSDVVMTQTPLTLSVTTGQPASISCKSSQSLLDSDGKTYLNWLFQRPGESPKLLIYVVSKLESGVPDRFTGSGSGTDFTLKISRVEAEDLGVYYCLQATHFPWTFGGGTKLEIKRAAALESRGPFEGKPIPNPLLGLDSTRTGHHHHHH
Q: Which results are given for B4?
A: half-life (t1/2) [9]: 0.04 h; koff [11]: 0.0047 s⁻¹; koff [12]: 0.00474 s⁻¹; koff [13]: 0.0048 s⁻¹; Kd [14]: ~0.26 nM
